# The nanobody polyreactivity screen of Harvey et al. (2022)
# Experiment: yeast display, Sf9 membrane polyspecificity reagent, FACS + sequencing; frameworks hold sequencing errors
# Summary of the method: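 Sorting gates, low and high (top ~1%), were placed on anti-HA fluorescence to track expression and on streptavidin fluorescence to track reagent binding. A clone's polyreactivity label is taken from the gate it came out of. The reagent was 10% biotinylated, detergent-solubilized Sf9 membrane, applied for 1 hour at 4 °C to galactose-induced yeast display cells.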
row,Sequence,polyreactivity (PSR sort gate)
1,QVQLVESGGGLVQAGGSLRLSCAASGGIFWHYTMGWYRQAPGKERELVAAITRRGGSTYYADSVKGRFTISRDNAKNTVYLQMNSLKPEDTSVYYGAAVFEWTSRGSYYRYYYWGQGTQVTVSS,low polyreactivity
2,QVQLVESGGGLVQAGGSLRLSCAASGRNFRSYAMGWYRQAPGKERELVAAIRRGGSTNYADSVKGRFTISRDNAKNTVYLQMNSLNPEDTAVYYCAARGWSYRSVGYMDYWGQGTQVTVSS,high polyreactivity
3,QVQLVESGGGLVQAGGSLRLSCAASGSTFSSYGMGWYRQAPGKERELVAAISKRGGSTYYADSVKGRFTISRDNAKNTVYLQMNSLKPEDTAVYYCAAAVRKQGYSTLFDYWGQGTQVTVSS,high polyreactivity
4,QVQLVESGGGLVQAGGSLRLSCAASGITFYFNAMGWYRQAPGKERELVAVITSGGSTNYADSVKGRFTISRDNAKNTVYLQMNSLKPEDTAVYYCANDKSYSSWSAQYDYWGQGTHVTVSS,low polyreactivity
5,QVQLVESGGGLVQAGGSLRISCAASGSTFSRNAMGWYRQAPGKERELVAAISRRGDTTYYADSVKGRFTISRDNAKNTVYLQRNSLKPEDTGVYYCAASRYGYPKYGYWGQGTQVTVSS,high polyreactivity
6,QVQLVESGGGLVQAGGSLRLSCAASGFTFYRNAMGWYRQAPGKEREVVAAISISGGSTYYADSVKGRFTISRDNAKNTVYLQMNSLKPEDTAVYYCAAYYYRDRYSRVKVTYWGLGTQVTVSS,high polyreactivity
7,QVQLVESGGGLVQAGGSLRLSCAASGRTFVDNGMGWYRQAPGKERELVAAITYSGGGTYYADSVKGRFTISRDNAKNTVYLQMNSLKPEDTAVYYCNAELGPVDYYGGVTPEYDYWGQGTQVTVSS,low polyreactivity
8,QVQLVESGGGLFQAGGSLRLSCAASGRTFWAYAMGWYRQAPGKERELVAAITTSRGSTNYADSVKGRFTISRDNAKNTVYLQMNSLKPEDTAVYDCNADPTYHVVIGVGYWGQGTQVTVCS,low polyreactivity
9,QVQRVESGGGLFQAGRSLRLSCAASGFIFSTYAMGWYRQAPGKERELVAAISSGGSTYYADSVKGRFTISRDNAKNTVYLQMNSLKPEDTAVDYCAADLGAYWFSYYYWGQGTQLTVSS,high polyreactivity
10,QVQLVESGGGLVQAGGSLRVSCAASGSTFGGNAMGWYRQAPGKERELSTYYADSVKGRFTISRDNAKNTVYLQMNSLKPEDTAVYYCNTENFYGSDIFDSWGQGTQVTVSS,low polyreactivity
11,QVQLVESGGGLVQAGGSLRLSCAASGSTFGTNAMGWYRQAPGKEREFVAAISRRGGRTYYADSVKGRFTISRDNAKNTVYLQMNSLKPEDTAVYYCNAVSTGQGLYDYWGQGTQVTVSS,high polyreactivity
12,QVQLVESGGGLVQAGGSLRLSCAASGFTIYFKAMGWYRQAPGKERELVAAISFSGGGTYYADSVKGRFTISRDNAKNTFYLQMNSLKPEDTAVYYCAADWYDWVSTYDYWGQGTQVTVSS,low polyreactivity
13,HVQLQESGGGLVQPGGSLRLSCAASGNISFSRNMGWYRQAPGKERELVAAIDRGAITYYGDSVKGRFTISRDNAKNTVYLQIYSLKPEDTAVYYCAAEYHDGWDHRYWGQGTQVTVSS,high polyreactivity
14,QVQVESGGGLVQAGGSLRLSCAASGSIIDQYVMGWYRQAPGKERELVAAISRGGRTYYADSVKGRFTISRDNAKNTVYLQMNSLKPEDTAVYYCAARSDVRGFDYWGQGTQVTVSS,low polyreactivity
15,QVQLGESGGGLVQAGGSLRLSCAASGFIFEHYARGWYRQAPGTDTEFVARISWGGGSTYYADSVKGRFTISRDNAKNTVYLQMNSLKPEDTAVYYCHALEGVYFGYYPSDYWGQGTQVTVAS,low polyreactivity
16,QVQLVESGGGLVQAGGSLRLSCAASGIIFFDYAMGWYRQAPGKERELVAAISSGGGNTYYADSVKGRFTISRDNAKNTVYLQMNSLNPEDTAVDYCAAEPYIYGEQGAYDYWGQGTQVTVSS,low polyreactivity
17,QVQLVESAGGLVQAGGSLRLSCAASGSIFPTNTMGWYRQAPGKERELVATIRKSSGRTYYADSVKGRFTISRDNAKNTVYLQMNSLKPEDTAVYYCNARRYSGALRYDYWGQGTQVTVSS,high polyreactivity
18,QVQHVESGGGLVQAGGSLRLSCAASGRIFPYYAMGWYRQAPGKEREFVAAITKRGGSTSYADSVKGRFTISRDNAKNTVYLQMNSLKPEDTAVYYCAAAGVYYGVRGTTYAYDYWGQGTQVTVSS,low polyreactivity
19,QVQLVESGGGLVQAGGSLRLSCAASGSILQQIYAMGWYRPAPGKERELVAAISASGGSTYYADSVKGRFTISRDNAKNTVYLQMNSLKPEDTAVYYCNKVGYYASVLGYDYWGQGTQVTVSS,high polyreactivity
20,QVQLVESGGGLVQAGCSLRLSCAASGFTFGDNAMGWYRQAPGKDRELDARITGDGSTYYADSVKGRFTISRDNAKNTVYLQTNSLKPEDTAVYYCAADYSPRYTQIEYGYWGQGTQVTVSS,low polyreactivity
21,QVQLVESGGGLVQAGGSLRLSCAASGITLSWYAMGWSRQAPGKERELVAGISGRGGRTYYADSVKGRFTISRDNAKNTVYLQMNSLKPEDTAVYYCAADCPGYRSYDYWGQGTQVTVSS,high polyreactivity
22,QVQLQESAGGLVQAGGSLRQSCEASGYIIPYYSMGWYRQSPGKERGLVACIAAGTTTNYADSVNGRFTISRDNEKNTVYLQMNSLNPEDAAVYFCAALNAFNTGHWYWGQGTQVTVSS,low polyreactivity

row,Sequence,polyreactivity (PSR sort gate)
1,QVQLVESGGGLVQAGGRLRLSCAASGLIFRAYAMGWYRQAPGKERELVAAISRRGGSTYYADSVKGRFTISRDNAKNTVYLQMNSLKPEDTAVYYCAATSRVSKSHLYGYWGQGTQVTVSS,high polyreactivity
2,QVQLVESGGGLVQAGGSLSLSCAASGRIIDWNTMGLYRQAPGKERDLDATISWDGGTKYYADSVKGRFTISRDTAKNTVFLQMNSLKPEDTAVYYCNKSPLNFFRFRATYDYWGQGTQVTVSS,low polyreactivity
3,QVHLVESGGGLVQAGGSLRLTCAASGIIFLRYAIGWYRQAPGKERDLVAAITRGGITYYADSVKGRFTISRDNAKNTVYLQMNSLKPEDTAVYYCAATYSGNYSMCRGYDYWGQGTQVTVSS,low polyreactivity
4,QVQLVESGGGLVQAGGSLRLSCAASGRTSRFDAMGWDIEAPGKERELVARITTRGGSTYYADSVKGRFTISRDNAKNTVYLQMNSLKPEDTAVYFCNAKVTRGDVGGRFEYWGQGTQVTVSS,high polyreactivity
5,QVQLVESGGGLVQAGGSLRLSCAASGRIFGAYAKGWYRQAPGTERELVAAISGSGGSTSYADSVKGRFTISRDNAKNTVYLQMNSLKPEDTAVYYCNAVSYVDIWDDRRYYYWVQGTQVTVSS,low polyreactivity
6,QVQLVESGGGLVQAGGSLRLSCAASGSTFTDYAMGWYRQAPGKERELVAAIDSGGITNYADSVKGRFTISRDNAKNTVYLQMNSLKPEDTAVYYCNADSSKFYSHGEYEYWGQGTQVTVSS,low polyreactivity
7,QVQLVDSGVGLVQAGGSLRLSCASSGSTFTINAMACYRHAPGKERELVAAISSGDSYYADSVKGRFTISRDNAKNTVYLQMNSLKPEDTTAVYYCAADSPGDSSKYDYWGQGTQVTVSS,low polyreactivity
8,QVQLVESGGGLVQAGGSLRLSCAASGRIFDFNPMGWYRQAPGKEREVVAAISSGGRTKYADSVKGRFTISRDNAKNTVYLQMNSLKPEDTAVYYCAASGSQPDDYWGQGTQVTVSS,high polyreactivity
9,QVQLVESGGGLDQAGGSLRLSCAASGYTFNLNAMGWYRQAPGKERELVAAISSGDSTDYADSVKGRFTISRDNAKNTVYLQMHSLQPEDTAVYYCNADLPVVWRRDFWGDLYWGQATQVTVSS,low polyreactivity
10,QVQLVESGGGLVQAGGSLRLSCAASGITFSYNAMGWYRQAPGKEREFVAAISSNSDSTYYADSVKGRFTISRDTAKITVYLQMNSLKPEDTAVYYCAADTPDAPDYSGFYYWGQGTQVTVSS,low polyreactivity
11,QVQLVESGGGLVQAGGSLRLSCAASGRTFSWYAMGWYRPAPGQERELVAAITYSGGNTYYADSVKGRFTISRDNAKNTVYLQMNSLKPEDTAVYYCAKYGVTGQGSWSQRMGYWGQGTQVTVSS,high polyreactivity
12,QVQLVESGGGLVQAGGSLRISCAASGYTFGNYAMGWYRQAPGKERELVAAISWRGARTNYADSVKGRFTISRDNAKNTVYLQMNSLKPEDTAVYYCAAGYYYGYPPRDYWGQGTQVTVSS,high polyreactivity
13,QVQLVESGGGLVQAGGSLRLSCPASGRIFKSYAMGWYRHAPGKERELVAAINWSGGSKYYADSVKGRFTISRDNAKNTVYLQMNSLKPEDTAVYYCAAYFYGRWPYGTGYYYWGQGTQVTVSS,high polyreactivity
14,QVQLVESGGGLVQAGGSLRLSCAASGSTFVHYAMGWYRQAPGKERELVAAITISGGRTYYADSVKGRFTISRDNAKNTVYLQMNSLKPEDTAVYYCNADHYHRTWGYDYWGQGTQVTVSS,low polyreactivity
15,QVQLVESGGGLVQAGGSLRLSCAASGRTFHYYAMVWYRQAPWKERELVAGITAGGSTYYADSVKGRFTISRDNAKNTVYLLMNSLKPEDNSGYYCAADRSYYGYGYWGKGTQVTVSS,low polyreactivity
16,QVQLVESGGGLVQAGGSLRLSCAASGRTFKYNTMGWYRQAPGKEREFVAAINWSGGSTYSAASVKGRFTISRDNAKNTVYLQMNSLKPEDTAVYYCAARRVYLGEYDYWGQGTQVTVSS,high polyreactivity
17,QVQLGESGGGLVQAGGSLRLSCAASGNIFYRYAMGWYRQAPGKERELVAAITSDGSTYYADSVKGRFTISRDNAKNTVYLQMNSLKPEDTAVYYCAARRGTGSYSYRYPYGYDYWGQGTQVTVSS,low polyreactivity
18,QVQLVESGGGLVQAGGSLRLSCAASGRIFRINAMGWYRQAPGKERELVATISSGGGSTYADSVKGRFTISRDNAKTTVYLQMNSLKPEDTAVYYCAARSRIGRYTYDYWGQGTQVTVSS,high polyreactivity
19,QVQLVESGGGLVQAGGSLRLSCAASGSIFYVNTMGWYRQAPGKERELVAVIDYGGDSTYYADSVKGRFTISRDNAKNTVFLQMNSLKPEDTAVYYCAADAYESGNWEANGYWGQGTEVTVSS,low polyreactivity
20,QVHLVESGGGLVQPGGSLRLSCAASGFPFYINAMGWYRQAPGTERELVAAITIGSTTYYADSVKGRCTISRDNAKNTVYLQMNSLKPEDTAVYYCAAEVWRDYTSRLYDYWGQGTQVTVSS,low polyreactivity
21,QVQLVESGVGLVQARRSLRLSCAASGSSKLILWDGIDRRLGKKGSWLPLFVLVVLRNYADSVKGRFTISRDNAKNTVYLQMNILKPDDTEVYYCAATAIGSGGWGDYWGLGTQVTVSS,low polyreactivity
